In the data set the test system is NotI restriction endonuclease (Nocardia otitidis-caviarum). The data set can be described thus: cleavage_in_vitro. To be noted: endonuclease contamination test; 200 units, 4 h, 37 C, NEBuffer 3 + BSA.

phiX174 RFI DNA: the activity (% converted to RF II) is less than 5.

The values are drawn from patent US5371006.
